Values of other authors in PMC9152818.
Like-named read-outs stand apart in the source and are kept apart here.

Assays:
[1] = biological target: spike protein RBD (SARS-CoV-2) (UniProt P0DTC2)
[2] = biological target: spike protein (SARS-CoV-2) (UniProt P0DTC2)
[3] = biological target: spike protein RBD (SARS-CoV-2) (UniProt P0DTC2); remark: listed apart in the source
[4] = biological target: spike protein CendR peptide CendR peptide (SARS-CoV-2) (UniProt P0DTC2)
[5] = biological target: spike protein RBD (SARS-CoV-2) (UniProt P0DTC2); remark: listed apart in the source

In the case of ASGR1 (from UniProt P07306), the Kd [1] is given as 95 nM.

In the case of AXL (from UniProt P30530), the Kd [2] is listed as 1000 nM.

In the case of Kremen1 (from UniProt Q96MU8), the Kd [3] is given as 20 nM.

In the case of Neuropilin-1 (from UniProt O14786), the Kd [4] is given as 20000 nM.

In the case of “soluble trimeric ACE2 (from UniProt Q9BYF1)”, the Kd [5] is given as under 1 nM.
